# According to patent US20250129329A1, “CULTURE MEDIUM FOR HEPATOMA ORGANOID CULTURE, HEPATOMA ORGANOID CULTURE METHOD, AND APPLICATION THEREOF” (PRECEDO PHARMACEUTICALS CO., LTD, priority 2021, published 2025):
# B1: R-spondin1: R-spondin family protein, medium additive, supplier R&D (protein, UniProt Q2MKA7 21-263, looked up)
# R-spondin-1: SRGIKGKRQRRISAEGSQACAKGCELCSEVNGCLKCSPKLFILLERNDIRQVGVCLPSCPPGYFDARNPDMNKCIKCKIEHCEACFSHNFCTKCKEGLYLHKGRCYPACPEGSSAANGTMECSSPAQCEMSEWSPWGPCSKKQQLCGFRRGSEERTRRVLHAPVGDHAACSDTKETRRCTVRRVPCPEGQKRRKGGQGRRENANRNLARKESKEAGAGSRRRKGQQQQQQQGTVGPLTSAGPA
# Tested on: hepatoma organoids isolated from liver cancer tissue
# Test: Effects of medium additives on proliferation of hepatoma organoids (Example 1)
# Assay type: cell-based, human
# Details: additive in basic medium at the final concentration; organoid diameters after 7 days compared with Basic Medium
# Protocol: First, a basic medium containing initial medium was prepared. […] In this embodiment, the formulation of the basic medium is: DMEM/F12 medium (purchased from Corning)+100 μg/mL Primocin (purchased from InvivoGen, 0.2% (v/v), commercial product has a concentration of 50 mg/ml).
# Different types of additives (see Table 1) were added to the basic medium to prepare culture mediums for hepatoma organoid with different components.
# Tissue samples (intraoperative) of liver cancer solid tumor were obtained from patients by professional medical practitioner of professional medical institutions, and all patients have signed the informed consent. Intraoperative samples having the size of 0.25 cm3 were stored and transported using commercial tissue preservation solution (manufacturer: Miltenyi Biotec).
# • 3.1. Tissue samples were transferred from the ultra-clean workbench to a culture dish, and the tissue with blood was removed. […] The completion of digestion was determined via observation every 30 minutes, based on the existing of visible particles or not. • 3.4. […]
# The primary liver cancer cells obtained in the above steps were resuspended with pre-cooled DMEM/F12 and counted. […] After 7 days, the cultured organoids were photographed and the diameters of the organoids were measured and compiled, so as to compare the promoting effects of various factors on the proliferation of hepatoma organoids. […]
molecule,measurement,value
B1,Level of promoting proliferation,+
